Measured values from paper doi:10.1101/2022.12.14.520480 (bioRxiv, 2022).

Target: GST-LC3B (UniProt Q9GZQ8 1-120)
Test: pull-down

B1: MYC-tagged LIMP2 wild type (natural protein)
chain: MGRCCFYTAGTLSLLLLVTSVTLLVARVFQKAVDQSIEKKIVLRNGTEAFDSWEKPPLPVYTQFYFFNVTNPEEILRGETPRVEEVGPYTYRELRNKANIQFGDNGTTISAVSNKAYVFERDQSVGDPKIDLIRTLNIPVLTVIEWSQVHFLREIIEAMLKAYQQKLFVTHTVDELLWGYKDEILSLIHVFRPDISPYFGLFYEKNGTNDGDYVFLTGEDSYLNFTKIVEWNGKTSLDWWITDKCNMINGTDGDSFHPLITKDEVLYVFPSDFCRSVYITFSDYESVQGLPAFRYKVPAEILANTSDNAGFCIPEGNCLGSGVLNVSICKNGAPIIMSFPHFYQADERFVSAIEGMHPNQEDHETFVDINPLTGIILKAAKRFQINIYVKKLDDFVETGDIRTMVFPVMYLNESVHIDKETASRLKSMINTTLIITNIPYIIMALGVFFGLVFTWLACKGQGSMDEGTADERAPLIRT
  binding result: binds
